Laboratory results: a protein production outcome set (Wang et al. 2014)

Test: label from the status in PepcDB records

Row | Sequence | protein production
1 | MNLPCQWPRSQQADKHGRFPINRDQRRAAGAGTRSGAGGQPPLGLDQYVQQALQLHQAGRRQEAESIYRQVLARQPKHAAAAHFLGLLLHQTGRSEEGLDLIERSVSLQPTNADFLNNFGTVMRDLGRVAAAIDFFRGAVDLRPEQLAARDNLGSSLKQLGRFEEAEDIYRGTVARNPFHVRARIGLAETLQEAGRLDEALAVFRESLTIRPKDADLLHGLGVGMMEKGKLDEAADLFRQALAVNPGMATAWLMLTQVKRQKERDAELAGMEAQHAKAPQDSLARMQLSFGLGKANDDLKDYNRAFDYFAEGNAIRRKGIDYDPVRTREEFAAMKTVFDAGFFERHRPSPISDDAPIFVVGMPRSGTTLVEQIIASHPQVYGAGELSILKKAVGKQFPTTMPGGFPWGVADTDDADFAEAGQAYLDMLHARYPHLSHVTDKMPGNFLLVGFIHMMMPKAKIIHCTRDAAATCLSIYKVHFRGDSHRYGYDLGELADFHNLYTDIMAHWHKVLPGVVHDVRYEDFVADQEGQSRALIDYLGLPWDDAVLSFHATDRPVRTASAAQVRQPMYQGSVDLWKRYGDRLKPLLDKLD | failed
2 | MGNHAGKRELNAEKASTNSETNRGESEKKRNLGELSRTTSEDNEVFGEADANQNNGTSSQDTAVTDSKRTADPKNAWQDAHPADPGSRPHLIRLFSRDAPGREDNTFKDRPSESDELQTIQEDSAATSESLDVMASQKRPSQRHGSKYLATASTMDHARHGFLPRHRDTGILDSIGRFFGGDRGAPKRGSGKVSSEE | failed
3 | MTWLLFGAGNGVGGCLLQRAIECEQAVVLVLRNPEQAKHWREQGVTVVEGDACDPETVAEACRVAGPSAIVVSTMGGGTVNYQGHRTVIDGAEQAGIKRMLLVTSLGCGDSWPLLSPRARAAFGFAVREKSLAESWLQSSTLDHCIVRPGGLLDVVATHNAKLTQGAATLGLVSRSDVALAVDQLLQQPVFGNHIYNLIDPDLTMPAIPLEHHHHHH | failed
4 | MKNQLELIAESYDKGIDYGRRGISLYDDLPEYITNNPDYIIYKKTTESIEPSVYSGYKEIREYLSPTTNMKFIDLGCCLNLMFNGYDQWASTYHGVDISSKTIELLNEFSTNNKLHIGALICGSIHETPFDANYFDIGACIGVLEYYKKDFVEKALIEAHRIIKPGGKLVLDIPNIVSPACRGMILLEEHAGRTDQFDMLPLDFENMLCNYFEIEKVEKANAWAMFQYFLSCKK | failed
5 | MCDAHLRGPSGIITSPNFPIQYDNNAHCVWIITALNPSKAGGDPGNIQCNKEGLSVETQSLRLRNRSCLLGNSKDNGCCVPNPVHGTGLQVIKLAFEEFDLERGYDTLTVGDGGQDGDQKTVLYILTGTSVPDLIVSTNHQMWLLFQTDGSGSSLGFKASYEEIEQGSCGDPGIPAYGRREGSRFHHGDTLKFECQPAFELVGQKAITCQKNNQWSAKKPGCVCK | failed
6 | MKIGIIGAGNIGGTLARKFVAAGHSVKLAGSKSPDSIRELAENIGAEPVAAVEAVKDVEVIVLSIPFAKIPEVAGLFSTVPAEVVVIDTSNYYPQLGTRIPEVDDGELESVWAREQLGRPIIKAFNAIIAKTLADGGKPAGTDNRIAIPVAGDSLAGKAIAQQLLDDAGFDALDAGTIADSWRQQPGMPAYCTELPLAALHSALNVAVKGDAPHLRDALMAEFFGGDIPPSHETIVARNRAVSA | failed
7 | MRRSPWRIAYTTKPADTAVPARHPSMAHIFFAASIQRHIATPEREVDARTLGEALEAVFAAQPRLRGYILDDQGALRKHLAVFVDGQPVRDRQHLSDALGENSRVYVIQALTGG | failed
8 | QKVQDAAMQEDPKALDEVVIVARQNINELDIRAKSGVVQRVDVERLNSKPMIDMSLALQGAVPGLIITNTGDLGSKPEIRIRGNSSFRKGDMANEPLYVMDGKVISSDAFMTLNPADIQEIKVLKDAVACALYGIKAANGVIEITSQRGNPDG | failed
9 | SWLYGKSDARWTITEYADLECPYCRTYTPQLMQWIDGQTDVNLVWHHFPLQMHGAATLKEARLVQCAGKLGGGKAFWNAIDQVLKHTRGDGQGLVTSIALSGIDAVVLDRCATLDADVALHVDQQLQLAQQAGVTATPTIKITDTQTRHSVRLEGPVDEVSILSAMDRLAFESK | failed
10 | MRNRLPPAWAKHLKTQPSVKVAMPKATLPKAQPNASPPRSQADDMLLRQALELQQAKRLPEAEELCLRVLARTPNHPLAYYILGTLGIGYDNEKALRYFARAVAEEPQNPYYHLSLGETYLKVSEFTPAIRHIQQALDLKPDLVEALCALGDAYNEFDKGELALPLFEKALKIDRYHPLARLGLPYALASLGRMDEAAVLLKEAIDRRIALPTAYGALVQTRNFTEEPPELESILAELRDPDLGSEDASALHHAAGKVLNDLGRYKEAMVHYKKGNQAGGHKFDLENYRRWIDAMIETFTPELFASRAAYGNPSDAPVFVVGMPRSGTTLTEQICASHPNVHGAGELGKLRRVANGIGLANRSNTNFAESIATFTPDLTRALAGEHLAYLRERAPDALRIVDKMPHNFELIGLIGILFPNARIIHCRRDAIDNCISCFVLRFNEAHSYSADLQTLGLYYREYDRLMRHWNKVLPGRIFENRYEALIENQEQQSRRLIDYLGLPWDDACLRFFDREGSVNTYSRWQVRQPIYTSSIKRWRNYESEIQSLIESLGDLAET | failed
11 | MSEKAKKGFKMPSSYTVLLIIIAIMAVLTWFIPAGAFIEGIYETQPQNPQGIWDVLMAPIRAMLGTHPEEGSLIKETSAAIDVAFFILMVGGFLGIVNKTGALDVGIASIVKKYKGREKMLILVLMPLFALGGTTYGMGEETMAFYPLLVPVMMAVGFDSLTGVAIILLGSQIGCLASTLNPFATGIASATAGVGTGDGIVLRLIFWVTLTALSTWFVYRYADKIQKDPTKSLVYSTRKEDLKHFNVEESSSVESTLSSKQKSVLFLFVLTFILMVLSFIPWTDLGVTIFDDFNTWLTGLPVIGNIVGSSTSALGTWYFPEGAMLFAFMGILIGVIYGLKEDKIISSFMNGAADLLSVALIVAIARGIQVIMNDGMITDTILNWGKEGLSGLSSQVFIVVTYIFYLPMSFLIPSSSGLASATMGIMAPLGEFVNVRPSLIITAYQSASGVLNLIAPTSGIVMGALALGRINIGTWWKFMGKLVVAIIVVTIALLLLGTFLPFL | failed
12 | MERKNNQRSDEDEERKEQSEEERVERKEEAPRKRQKQDDVSTGKETLSKKRKIIDNDGDNVPTRSNKQSRVDDADNVDGPPVGDNDDHPTAQRKSKRGTIPSIHTQPPFTAEKKKHPILYPFAKVDASRVEKLAEGKKSRKCK | failed
13 | MNAYYLLAIAVCAEVIATTSMKAVKGLSTPLPLILLITGYAIAFWMLILVMRTIPVGITYAIWSGMGIVMVSVAAYFIYGQKLDLPALLGMGMIVAGVAVIQLFSKTAGH | failed
14 | LTPLAQMAEGMERQDVSIDKWTLHAKQNLSLTEKEFYQKVQRLKQEYRQYDWVIAREDKMIKAIGTYTDKKNRTSFRLQLVTTLKKHNPTSYLLYEQMSLETPDSWNDTYEQFERETLGIFQEKVVIFTCLNGHLDDNMNIVLQKKANQLLNEFQARSVEHVVEPNFVSISAFTDEWEEYIMTSKHKMNLQIALRSAGMGGKHTVTVGTPIVTTEY | not failed
15 | RGIIRLIKDNKSLTMKNTEVMLHGSSLAFDASTLEIYAALLNGACLSIIDKEDLIDSQTLKEKLKNDHVNRAFFTTPLFNSLCEQDPSVFNELEQVIIGGDRASNKHLKIVMKNSKKTQFYNGYGPTENTVFTTMHNIQYSELEGDIPIGKA | failed
16 | MQFEVLKRFFPKESLKNCKGALWVHTASIGEFNTFLPILKELKREHRILLTYFSPRAREYLKTKSDFYDCLHPLPLDNPFSVKRFEELSKPKALIVVEREFWPSLIIFTKVPKILVNAYAKGSLIEKILSKKFDLIIMRTQEDVEKFKTFGAKRVFSCGNLKFICQKGKGIKLKGEFIVAGSIHTGEVEIILKAFKEIKKTYSSLKLILVPRHIENAKIFEKKARDFGFKTSFFENLEGDVILVDRFGILKELYPVGKIAIVGGTFVNIGGHNLLEPTCWGIPVIYGPYTHKVNDLKEFLEKEGAGFEVKNETELVTKLTELLSVKKEIKVEEKSREIKGCYLEKLREFLRGL | failed
17 | MKKSLCLSFFLTFSNPLQALVIELLEEIKTSPHKGTFKAKVLDSKKPRQVLGVYNISPHKKLTLTITHISTAIVYQPLDEKLSLETTLNPNRPTIPRNTQIVFSSKELKESHPHQMPSLNAPMQKPQNKPHSSQQPSQNFSYPEPKLGSKNSKNSLLQPLAIPSKISPTNETQTPTNDTKPPLKHSSEDQESNLFITPPTEKTLPNNTSNADISENNESNENKDNVEKQAIRDANIKEFACGKWVYDDENLQAYRPSILKRVDEDKQTATDITPCDYSTAENKSGKIITPYTKISVHKTEPLEEPQTFEAKNNFAILQARSSTEKCKRARARKDGTTRQCYLIEEPLKQAWESEYEITTQLVKAIYERPKQDDQVEPTFYETSELAYSSTRKSEITHNELNLNEKFMEFVEVYEGHYLNDIIKESSEYKEWVKNHVRFKEGVCMALEIEEQPRAKSTPLSIENSRVVCVKKGNYLFNEV | failed
18 | MGNLTTILYFAYAPALALLWYFYHQDRLEPEPKRVVIGTFILGGTLSVSVALIVESLLVPRWFPRIPALLPATFLYISLIAGIVEEPAKALAIKYAYNSGHLYGIMDGVVYGVAAGLGFAATENLLYGLGYGVHVTIQRALLTPIGHATWSAIVGVGYGLKAEGKVYTLAPYFTLAVLLHFLWDYYAFMSSISPVYYGIVLLIFTINVLIIRWLIILGRKEDMERFWWYRILGGRRW | failed
19 | MMYVTVMPVFLAGVANRFFCKSDILAWTYQPIDGGFTMSDGKRILGANKTWKGFWGMITLTTFCQVIWGFILGIIPHLLTFSLVKSYHNDIFFNLFIGFLMGSAYVLCELPNSFIKRRFNVSPGQLASGNARWVFLFADQIVPFLGSIAVVAIFSPMTFSYYVGYVLLAAITLFAINSLILFVEMKRK | failed
20 | MIPFDYIVEKTVSTGVLVDVIGALLEVGNLTEDYRGLKLPFKIMDQYKEVLQCEAHNDQALEFQRFFQRLTGPQNVIALVSWRLSGIYKLKTLSNDPISKVIANPDIPEVEEIRVVVY | failed
21 | MPSSTFSGTVSTPKLSVAVDMGNPFLNLTVDAFLKIGAVGVTKSLAEDTYKAIDKGSLSKSTLEHALKKLCKEGVYWGAAGGVYIGTEYGIERIRGSRDWKNAMLAGAATGAVLSAVGKKGKDTIVIDAILGGALATASQFVNNHYFY | failed
22 | MFASCHCVPRGRRTMKMIHFRSSSVKSLSQEMRCTIRLLDDSEISCHIQRETKGQFLIDHICNYYSLLEKDYFGIRYVDPEKQRHWLEPNKSIFKQMKTHPPYTMCFRVKFYPHEPLKIKEELTRYLLYLQIKRDIFHGRLLCSFSDAAYLGACIVQAELGDYDPDEHPENYISEFEIFPKQSQKLERKIVEIHKNELRGQSPPVAEFNLLLKAHTLETYGVDPHPCKDSTGTTTFLGFTAAGFVVFQGNKRIHLIKWPDVCKLKFEGKTFYVIGTQKEKKAMLAFHTSTPAACKHLWKCGVENQAFYKYAKSSQIKTVSSSKIFFKGSRFRYSGKVAKEVVEASSKIQREPPEVHRANITQSRSSHSLNKQLIINMEPLQPLLPSPSEQEEELPLGEGVPLPKEENISAPLISSSPVKAAREYEDPPSEEEDKIKEEPLTISELVYNPSASLLPTPVDDDEIDMLFDCPSRLELEREDTDSFEDLEADENAFLIAEEEELKEARRALSWSYDILTGHIRVNPLVKSFSRLLVVGLGLLLFVFPLLLLLLESGIDLSFLCEIRQTPEFEQFHYEYYCPLKEWVAGKVHLILYMLGCS | failed
23 | MLLHNGPMKLAEALIERADLQKRAAQLEERLVQNMQVQEGEVPAEDPRELLNELLTVSSALEVLLPRIHRANLSATLPSGQTLTDALTRRDLLDARLKALRRAATAAAERQTRYSNSELRMVAVIPPSELQKLADVMAKERRELEVQIQQANWQTDLPGSGALEHHHHHH | not failed
24 | MRRSPCNQGLSNLMQLFTYLAPAGQALLPYLSEISIALVACTLVMLGGEINAFLRRALRNQHFLVRTLAFIFINAFGYGLIIVKASPYVARTLAQLESGMMLTLIVSCFVVIGLWAQRNHQI | failed
